Measured values reported in publication PMC4980159 (Biochemistry, 2016).
Like-named read-outs stand apart in the source and are kept apart here.

How the values were obtained:
[1] = molecular target: Fibronectin (Homo sapiens) (UniProt P02751); conditions: cited from earlier work
[2] = molecular target: CEACAM5 N-terminal domain (Homo sapiens) (UniProt P06731); conditions: cited from earlier work
[3] = molecular target: Fluorescently labeled NCCM3 H139C (human) (UniProt P40198); test: fluorescence polarisation
[4] = molecular target: Fluorescently labeled NCCM1 H139C (human) (UniProt P13688); test: fluorescence polarisation
[5] = molecular target: CEACAM5 N-terminal domain (Homo sapiens) (UniProt P06731); conditions: cited from earlier work; remark: listed apart in the source
Target sequence in this assay (P06731 35-144): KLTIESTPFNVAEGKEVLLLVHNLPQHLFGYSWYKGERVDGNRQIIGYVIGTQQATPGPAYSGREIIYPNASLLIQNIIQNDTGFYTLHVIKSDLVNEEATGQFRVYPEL

[6] = molecular target: Recombinant OpaD reconstituted into liposomes (N. gonorrhoeae strain FA1090, UniProt Q04883 2-243); test: fluorescence polarisation

Fibronectin (Homo sapiens), sequence (P02751 32-2477): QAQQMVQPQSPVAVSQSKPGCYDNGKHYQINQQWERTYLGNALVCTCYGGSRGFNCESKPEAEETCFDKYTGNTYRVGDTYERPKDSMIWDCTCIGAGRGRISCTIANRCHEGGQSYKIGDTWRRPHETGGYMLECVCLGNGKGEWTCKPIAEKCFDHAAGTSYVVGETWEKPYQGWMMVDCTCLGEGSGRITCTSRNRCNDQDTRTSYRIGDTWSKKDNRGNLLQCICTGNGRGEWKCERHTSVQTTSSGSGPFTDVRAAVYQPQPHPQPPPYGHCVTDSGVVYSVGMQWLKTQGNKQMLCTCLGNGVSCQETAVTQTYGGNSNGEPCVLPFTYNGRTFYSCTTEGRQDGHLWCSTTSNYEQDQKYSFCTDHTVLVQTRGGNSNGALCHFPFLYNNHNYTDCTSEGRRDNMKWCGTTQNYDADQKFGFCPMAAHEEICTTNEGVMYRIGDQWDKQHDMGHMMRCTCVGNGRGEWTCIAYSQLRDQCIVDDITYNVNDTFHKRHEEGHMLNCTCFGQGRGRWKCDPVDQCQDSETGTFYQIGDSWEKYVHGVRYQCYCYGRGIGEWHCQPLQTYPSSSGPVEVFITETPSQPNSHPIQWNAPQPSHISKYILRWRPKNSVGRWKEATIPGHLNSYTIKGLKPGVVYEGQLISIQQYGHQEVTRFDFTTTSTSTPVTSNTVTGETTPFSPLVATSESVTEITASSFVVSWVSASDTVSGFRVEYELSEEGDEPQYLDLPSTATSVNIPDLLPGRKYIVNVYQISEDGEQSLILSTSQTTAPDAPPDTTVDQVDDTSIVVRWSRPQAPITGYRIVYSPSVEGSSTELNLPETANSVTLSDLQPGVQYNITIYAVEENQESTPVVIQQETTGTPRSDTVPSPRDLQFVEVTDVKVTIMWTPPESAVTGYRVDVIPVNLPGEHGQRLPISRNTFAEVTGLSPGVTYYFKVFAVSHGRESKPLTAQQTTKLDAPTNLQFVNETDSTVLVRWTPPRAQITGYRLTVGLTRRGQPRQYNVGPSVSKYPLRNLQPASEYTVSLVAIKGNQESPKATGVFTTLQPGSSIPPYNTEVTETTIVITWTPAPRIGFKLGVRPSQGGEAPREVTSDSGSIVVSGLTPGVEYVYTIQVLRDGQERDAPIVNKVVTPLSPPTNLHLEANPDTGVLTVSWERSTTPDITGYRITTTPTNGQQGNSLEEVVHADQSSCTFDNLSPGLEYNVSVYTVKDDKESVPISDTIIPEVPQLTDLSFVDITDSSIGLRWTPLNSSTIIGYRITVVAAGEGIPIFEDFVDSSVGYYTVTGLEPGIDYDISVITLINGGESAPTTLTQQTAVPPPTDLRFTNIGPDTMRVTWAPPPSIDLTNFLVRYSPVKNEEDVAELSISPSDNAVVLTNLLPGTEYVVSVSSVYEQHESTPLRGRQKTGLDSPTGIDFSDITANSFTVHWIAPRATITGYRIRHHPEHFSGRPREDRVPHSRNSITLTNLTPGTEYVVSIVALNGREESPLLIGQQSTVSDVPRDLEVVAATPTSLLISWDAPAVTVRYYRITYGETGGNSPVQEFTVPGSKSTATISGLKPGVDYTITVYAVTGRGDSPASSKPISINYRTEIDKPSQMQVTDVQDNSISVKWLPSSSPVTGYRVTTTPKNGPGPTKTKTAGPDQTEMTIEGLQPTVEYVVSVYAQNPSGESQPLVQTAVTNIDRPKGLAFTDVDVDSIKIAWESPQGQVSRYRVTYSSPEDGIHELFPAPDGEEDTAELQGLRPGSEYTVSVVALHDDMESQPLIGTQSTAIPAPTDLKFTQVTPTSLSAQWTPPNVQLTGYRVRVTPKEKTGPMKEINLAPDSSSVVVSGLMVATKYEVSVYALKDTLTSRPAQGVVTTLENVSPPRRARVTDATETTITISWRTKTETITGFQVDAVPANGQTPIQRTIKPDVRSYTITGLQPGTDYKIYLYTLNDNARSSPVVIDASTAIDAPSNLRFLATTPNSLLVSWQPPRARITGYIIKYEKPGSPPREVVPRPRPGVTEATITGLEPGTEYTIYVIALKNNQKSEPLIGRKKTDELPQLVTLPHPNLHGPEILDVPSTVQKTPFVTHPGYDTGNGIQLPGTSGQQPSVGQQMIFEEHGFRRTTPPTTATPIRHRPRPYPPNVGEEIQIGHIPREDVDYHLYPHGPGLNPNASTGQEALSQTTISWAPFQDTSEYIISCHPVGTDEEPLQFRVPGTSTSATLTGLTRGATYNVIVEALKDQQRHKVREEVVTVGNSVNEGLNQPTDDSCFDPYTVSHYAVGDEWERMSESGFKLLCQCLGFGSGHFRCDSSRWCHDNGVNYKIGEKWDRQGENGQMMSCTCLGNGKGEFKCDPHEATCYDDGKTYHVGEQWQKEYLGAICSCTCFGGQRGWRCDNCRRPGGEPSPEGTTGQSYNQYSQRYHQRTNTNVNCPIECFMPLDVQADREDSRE

**Q.** Which results are given for “CEACAM5 N-terminal domain (from UniProt P06731)”?
**A.** Kd [1]: 16 nM; Kd [2]: 100 nM

**Q.** Which results are given for “Recombinant Opa60 reconstituted into liposomes (natural protein)”?
**A.** Kd [3]: 4.3 nM; Kd [4]: 1.6 nM

**Q.** For CEACAM5 A3 domain (from UniProt P06731), which Kd [5] is on record?
**A.** The Kd was 18 nM.

B1: Fluorescently labeled NCCM1 H139C (domain or fragment, human, UniProt P13688-1 35-141, looked up)
chain: QLTTESMPFNVAEGKEVLLLVHNLPQQLFGYSWYKGERVDGNRQIVGYAIGTQQATPGPANSGRETIYPNASLLIQNVTQNDTGFYTLQVIKSDLVNEEATGQFCVY
modifications: AMS (4-acetamido-4'-maleimidylstilbene-2,2'-disulfonic acid) on the introduced cysteine (H139C)
**Q.** For B1, which Kd [6] is on record?
**A.** Its Kd is 2.6 ± 1.3 nM.

B2: Fluorescently labeled NCCM3 H139C (domain or fragment, human)
chain: PGSGAKLTIESMPLSVAEGKEVLLLVHNLPQHLFGYSWYKGERVDGNSLIVGYVIGTQQATPGAAYSGRETIYTNASLLIQNVTQNDIGFYTLQVIKSDLVNEEATGQFCVYQ
modifications: AMS (4-acetamido-4'-maleimidylstilbene-2,2'-disulfonic acid) on the introduced cysteine (H139C)
**Q.** For B2, which Kd [6] is on record?
**A.** The Kd was 6.8 ± 2.2 nM.
